Source: paper PMC5818060 (Journal of Cell Science, 2018)

Legend:
DDX3X = experiment: ATPase assay of DDX3X; assay type: biochemical, human; conditions: full-length Flag-DDX3X, dsRNA 17-68 nM, 37°C, 40 min, 1 mM ATP; n=3
Protocol: For the ATPase assay, Flag-tagged DDX3X full-length constructs were expressed in HEK293T cells. After purifying and eluting DDX3X from the beads, an aliquot of the eluates was resolved by SDS-PAGE in order to monitor the different DDX3X levels via western blotting and ImageJ. Based on this comparison, similar amounts of full-length DDX3X protein were used. Approximately 100 ng Flag-DDX3X protein and 10 ng His-CK1ε were used in a 60 μl reaction mix (reaction buffer: 20 mM Tris-HCl, pH 7.4, 200 mM NaCl, 0.5 mM DTT, 1 mM MgCl2, 1 mM ATP) with dsRNA (17 nM, 34 nM, 68 nM); the reaction was carried out at 37°C for 40 min. To phosphorylate DDX3X, 500 ng His-CK1εΔC or His-CK1εΔC^K38R were added in kinase buffer before eluting the DDX3X protein from the Sepharose magnetic Flag beads (Sigma). Incubation was performed at 37°C for 30 min. Then, beads were washed with 50 mM Tris-HCl, pH 7.5 and 500 mM NaCl before elution with Flag peptide. Termination of the helicase reaction was done with 10 μl of 50% TCA solution added to each reaction followed by centrifugation at 3000 g for 5 min at 4°C. Reaction mix was mixed with coloring solution (35 mM ammonium molybdate, 10 mM zinc acetate, 10% ascorbic acid, pH 5) in a 96-well plate before analysis using a spectrometer (wavelength 700 nm).

[1] = system: DDX3X-stimulated CK1ε (CK1εΔC); experiment: In vitro radioactive kinase assay, DDX3X-stimulated CK1ε activity; assay type: biochemical, human; conditions: recombinant DDX3X, CK1 peptide substrate, radioactive; n=3
Protocol: (§1) Kinase assays were carried out essentially as described ([Cruciat et al., 2013]). For kinase assays, full-length DDX3X protein was expressed and purified from HEK293T cells as described for the ATPase assay. Deletion constructs were purified from E. coli. The eluted proteins were visualized using Coomassie Blue and the intensity of the protein bands was measured using ImageJ. The amounts used for kinase assays were estimated based on this staining. Where indicated, dsRNA was premixed with proteins at room temperature (RT) for 15 min before subjecting samples to radioactive kinase assays. The CK1 substrate peptide […] for the kinase assay and samples was analyzed using p81 phosphocellulose (Biomol) as described ([Zhai et al., 1992]). 0.3 µM CK1δ/ε-derived and control peptides were used ([Schacherl et al., 2015]). For mass spectrometric analyses DDX3X helicase core (His-DDX3X^168-582) as well as the C-terminal helicase domain (His-DDX3X^414-582) were in vitro phosphorylated by CK1ε. Also, reactions without addition of kinase were performed and analyzed in order to correct for false-positive results. Mass spectrometry data acquisition and analysis of trypsin-digested samples were performed at the Core Unit Mass Spectrometry and Proteomics (Ulm University) essentially as described in [Meng et al. (2016)].

CK1ε = experiment: Mass spectrometric detection of DDX3X phosphorylation by CK1ε in vitro; assay type: biochemical, human; set-up: key to Probability of phosphorylation, T469 (symbol) / Probability of phosphorylation, S470 (symbol) / Probability of phosphorylation, S429 (symbol): –: no phosphorylation detected; conditions: phosphorylated by CK1ε in vitro; tryptic digestion, MS
Protocol: as §1

[2] = system: endogenous CK1 / CK1 sensor in HEK293T cells; experiment: CK1 FRET biosensor, microplate reader FRET/CFP ratio; assay type: cell-based, human; conditions: HEK293T, n=3
Protocol: HEK293T cells were seeded at a density of 20,000 cells/well on 96-well black microplates (PS, μClear, clear bottom, chimney well, Greiner No. 655090). Transfection was performed as described above. Unless indicated otherwise, the respective cell populations were transfected with 50-100 ng CK1 FRET biosensor, 100 ng regulator (i.e. N-Flag DDX3X) and 1-10 ng kinase (i.e. N-Flag CK1ε). Either empty pCS2 N-Flag vector or luciferase were used to transfect the same amount of DNA in every well. Generally, the different samples were run in triplicate for each individual experiment. […]
Where applicable, the small-molecule CK1 inhibitor D4476 (BioVision) was added to the cells 2-4 h prior to the analysis. […] Analysis was performed 48-60 h after transfection on an Infinite M1000 PRO microplate reader (Tecan) by exciting CFP with a wavelength of 433 nm and measuring the resulting emission at 460-600 nm in 2 nm increments. Fluorometric spectra were background subtracted with spectra recorded from wells with non-transfected cells. Resulting FRET/CFP ratios were calculated by dividing the intensity values at the respective peaks (478 nm for CFP, 528 nm for YFP) and analyzed essentially as described ([Fritz et al., 2013]). […]

[3] = system: Dvl phosphorylation in HEK293T cells; experiment: Dvl phosphorylation shift on Western blot; assay type: cell-based, human; conditions: 50 or 100 ng Flag-DDX3X DNA

B1: CK1εΔC: CK1ε lacking the C-terminal 112 amino acids, constitutively active (protein, UniProt P49674 1-304, looked up, fragment)
chain: MELRVGNKYRLGRKIGSGSFGDIYLGANIASGEEVAIKLECVKTKHPQLHIESKFYKMMQGGVGIPSIKWCGAEGDYNVMVMELLGPSLEDLFNFCSRKFSLKTVLLLADQMISRIEYIHSKNFIHRDVKPDNFLMGLGKKGNLVYIIDFGLAKKYRDARTHQHIPYRENKNLTGTARYASINTHLGIEQSRRDDLESLGYVLMYFNLGSLPWQGLKAATKRQKYERISEKKMSTPIEVLCKGYPSEFSTYLNFCRSLRFDDKPDYSYLRQLFRNLFHRQGFSYDYVFDWNMLKFGAARNPEDV
modifications: His tag
DDX3X
  effect of CK1ε protein on RNA-stimulated ATPase activity of DDX3X: much less stimulated by dsRNA

B2: CK1εΔC^K38R: kinase-dead mutant of CK1εΔC (protein, UniProt P49674 1-416, looked up, variant K38R del305-416)
Casein kinase I isoform …: MELRVGNKYRLGRKIGSGSFGDIYLGANIASGEEVAIRLECVKTKHPQLHIESKFYKMMQGGVGIPSIKWCGAEGDYNVMVMELLGPSLEDLFNFCSRKFSLKTVLLLADQMISRIEYIHSKNFIHRDVKPDNFLMGLGKKGNLVYIIDFGLAKKYRDARTHQHIPYRENKNLTGTARYASINTHLGIEQSRRDDLESLGYVLMYFNLGSLPWQGLKAATKRQKYERISEKKMSTPIEVLCKGYPSEFSTYLNFCRSLRFDDKPDYSYLRQLFRNLFHRQGFSYDYVFDWNMLKFGAARNPEDV
modifications: His tag
DDX3X
  effect of CK1ε protein on RNA-stimulated ATPase activity of DDX3X: still allowed dsRNA stimulation of the ATPase activity

B3: His-DDX3X^414-582: C-terminal helicase domain of DDX3X (aa 414–582), 6× histidine tag (protein)
chain: NITQKVVWVEESDKRSFLLDLLNATGKDSLTLVFVETKKGADSLEDFLYHEGYACTSIHGDRSQRDREEALHQFRSGKSPILVATAVAARGLDISNVKHVINFDLPSDIEEYVHRIGRTGRVGNLGLATSFFNERNINITKDLLDLLVEAKQEVPSWLENMAYEHHYKG
modifications: left off: His, end not stated, kept
notes: C-terminal helicase domain of DDX3X (aa 414–582), 6× histidine tag
[1]
  stimulation of CK1ε kinase activity in vitro: sufficient to stimulate CK1ε∆C activity
CK1ε
  Probability of phosphorylation, S429 (symbol): –
  Probability of phosphorylation, S470: 100%
  Probability of phosphorylation, S543: 92.7%
  Probability of phosphorylation, T469: 100%

B4: DDX3X: human DEAD box RNA helicase DDX3X (UniProt O00571) (protein)
chain: MSHVAVENALGLDQQFAGLDLNSSDNQSGGSTASKGRYIPPHLRNREATKGFYDKDSSGWSSSKDKDAYSSFGSRSDSRGKSSFFSDRGSGSRGRFDDRGRSDYDGIGSRGDRSGFGKFERGGNSRWCDKSDEDDWSKPLPPSERLEQELFSGGNTGINFEKYDDIPVEATGNNCPPHIESFSDVEMGEIIMGNIELTRYTRPTPVQKHAIPIIKEKRDLMACAQTGSGKTAAFLLPILSQIYSDGPGEALRAMKENGRYGRRKQYPISLVLAPTRELAVQIYEEARKFSYRSRVRPCVVYGGADIGQQIRDLERGCHLLVATPGRLVDMMERGKIGLDFCKYLVLDEADRMLDMGFEPQIRRIVEQDTMPPKGVRHTMMFSATFPKEIQMLARDFLDEYIFLAVGRVGSTSENITQKVVWVEESDKRSFLLDLLNATGKDSLTLVFVETKKGADSLEDFLYHEGYACTSIHGDRSQRDREEALHQFRSGKSPILVATAVAARGLDISNVKHVINFDLPSDIEEYVHRIGRTGRVGNLGLATSFFNERNINITKDLLDLLVEAKQEVPSWLENMAYEHHYKGSSRGRSKSSRFSGGFGARDYRQSSGASSSSFSSSRASSSRSGGGGHGSSRGFGGGGYGGFYNSDGYGGNYNSQGVDWWGN
modifications: left off: Flag, N-terminal, kept
[2]; CK1 sensor with CK1 isoform
  cooperation of DDX3X with co-expressed CK1 isoforms (FRET/CFP ratio): predominantly synergized with limiting amounts of CK1ε rather than with CK1δ and CK1α isoforms
[2]; DDX3X without added CK1
  effect of co-expressed DDX3X on FRET/CFP ratio of CK1 sensor: not sufficient to significantly enhance endogenous CK1 activity
[3]
  stimulation of Dvl phosphorylation: the wild-type protein alone could not

B5: His-DDX3X^168-582: DDX3X helicase core (aa 168–582), 6× histidine tag (protein, UniProt O00571 168-582, looked up, fragment)
chain: VEATGNNCPPHIESFSDVEMGEIIMGNIELTRYTRPTPVQKHAIPIIKEKRDLMACAQTGSGKTAAFLLPILSQIYSDGPGEALRAMKENGRYGRRKQYPISLVLAPTRELAVQIYEEARKFSYRSRVRPCVVYGGADIGQQIRDLERGCHLLVATPGRLVDMMERGKIGLDFCKYLVLDEADRMLDMGFEPQIRRIVEQDTMPPKGVRHTMMFSATFPKEIQMLARDFLDEYIFLAVGRVGSTSENITQKVVWVEESDKRSFLLDLLNATGKDSLTLVFVETKKGADSLEDFLYHEGYACTSIHGDRSQRDREEALHQFRSGKSPILVATAVAARGLDISNVKHVINFDLPSDIEEYVHRIGRTGRVGNLGLATSFFNERNINITKDLLDLLVEAKQEVPSWLENMAYEHHYKG
modifications: N-terminal 6xHis tag
notes: DDX3X helicase core (aa 168–582), 6× histidine tag
CK1ε
  Probability of phosphorylation, S429: 100%
  Probability of phosphorylation, S470 (symbol): –
  Probability of phosphorylation, S543: 88.7%
  Probability of phosphorylation, T469 (symbol): –
